According to patent publication US20220249685A1 (SILVERBACK THERAPEUTICS, published 2022):

B1: Antibody 55 (VH1-e G27Y, G55A, R66K, V67A, A71V / VKIII-L6) (antibody, V domains shown)
VH: QVQLVQSGAEVKKPGSSVKVSCKASGYTFSGYTMNWVRQAPGQGLEWMGLITPYNAASSYNQKFRGKATITVDKSTSTAYMELSSLRSEDTAVYYCARGGYDGRGFDYWGQGTTVTVSS
VL: EIVLTQSPATLSLSPGERATLSCSASSSVSYMHWYQQKPGQAPRLLIYDTSKLASGIPARFSGSGSGTDFTLTISSLEPEDFAVYYCQQWSKHPLTFGGGTKVEIK
B2: 55-IgG1-TLR8 conjugate (antibody, V domains shown)
VH: QVQLVQSGAEVKKPGSSVKVSCKASGYTFSGYTMNWVRQAPGQGLEWMGLITPYNAASSYNQKFRGKATITVDKSTSTAYMELSSLRSEDTAVYYCARGGYDGRGFDYWGQGTTVTVSS
VL: EIVLTQSPATLSLSPGERATLSCSASSSVSYMHWYQQKPGQAPRLLIYDTSKLASGIPARFSGSGSGTDFTLTISSLEPEDFAVYYCQQWSKHPLTFGGGTKVEIK
modifications: cysteines freed by TCEP reduction may carry the drug-linker; positions not given; cysteines freed by TCEP reduction carry the TLR8 agonist drug-linker; positions not given
notes: also called 55-TLR8
B3: 56-IgG1-TLR8 conjugate (antibody, V domains shown)
VH: QVQLVQSGAEVKKPGSSVKVSCKASGGTFSGYTMNWVRQAPGQGLEWMGLITPYNAASSYNQKFRGRVTITADKSTSTAYMELSSLRSEDTAVYYCARGGYDGRGFDYWGQGTTVTVSS
VL: DIQMTQSPSTLSASVGDRVTITCSASSSVSYMHWYQQKPGKAPKLLIYDTSKLASGVPSRFSGSGSGTEFTLTISSLQPDDFATYYCQQWSKHPLTFGGGTKVEIK
modifications: cysteines freed by TCEP reduction may carry the drug-linker; positions not given; cysteines freed by TCEP reduction carry the TLR8 agonist drug-linker; positions not given
notes: also called 56-TLR8
B4: Antibody 56 (VH1-e CDRgraft G55A / VKI-L12) (antibody, V domains shown)
VH: QVQLVQSGAEVKKPGSSVKVSCKASGGTFSGYTMNWVRQAPGQGLEWMGLITPYNAASSYNQKFRGRVTITADKSTSTAYMELSSLRSEDTAVYYCARGGYDGRGFDYWGQGTTVTVSS
VL: DIQMTQSPSTLSASVGDRVTITCSASSSVSYMHWYQQKPGKAPKLLIYDTSKLASGVPSRFSGSGSGTEFTLTISSLQPDDFATYYCQQWSKHPLTFGGGTKVEIK

Key:
[1] = molecular target: T1, human MSLN expressed on tumor cell lines (OVCAR3, NCI-N87) or on transfected HEK-293 cells (human, UniProt Q13421 296-598); test: flow cytometry on NCI-N87 cells, anti-huIgG1-PE, MFI (Geo Mean)
T1 construct: whole, on cells; also called human mesothelin
T1 sequence (Q13421 other isoform, or with tags, fused parts or gaps limits assumed): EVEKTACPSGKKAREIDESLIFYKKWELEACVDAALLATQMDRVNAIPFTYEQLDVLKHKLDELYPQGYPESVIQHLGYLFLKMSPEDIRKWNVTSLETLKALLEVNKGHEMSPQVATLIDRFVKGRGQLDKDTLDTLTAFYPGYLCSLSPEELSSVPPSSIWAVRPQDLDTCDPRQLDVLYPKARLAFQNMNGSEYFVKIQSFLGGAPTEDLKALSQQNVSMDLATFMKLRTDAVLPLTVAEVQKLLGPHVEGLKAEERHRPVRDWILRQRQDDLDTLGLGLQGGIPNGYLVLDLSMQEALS

[2] = molecular target: T2, cynomolgus MSLN on transfected 293 cells (cynomolgus); test: flow cytometry on 293 cells transiently transfected with cyno MSLN, anti-huIgG1-PE, MFI (Geo Mean)
T2 construct: whole, on cells; also called cyno MSLN; cynomolgus mesothelin

Binder	EC50 (read off the curve) [1]	EC50 (read off the curve) [2]
B1	~100 pM	~80 pM
B2	~200 pM	~100 pM
B3	~300 pM	~200 pM
B4	~200 pM	~100 pM
